Measured values published in patent WO2018095932A1 (dated 2018).
Positions count from the first letter of the chain named. Each block holds one binder with its values, some of them ahead of it.

How the values were obtained:
[1] = target: T1, human FGFR1b-IIIb extracellular domain with a His tag (human); test: ELISA, IgG1 format
T1 construct: also called huFGFR1b-IIIb; FGFR1-IIIb
T1 chain: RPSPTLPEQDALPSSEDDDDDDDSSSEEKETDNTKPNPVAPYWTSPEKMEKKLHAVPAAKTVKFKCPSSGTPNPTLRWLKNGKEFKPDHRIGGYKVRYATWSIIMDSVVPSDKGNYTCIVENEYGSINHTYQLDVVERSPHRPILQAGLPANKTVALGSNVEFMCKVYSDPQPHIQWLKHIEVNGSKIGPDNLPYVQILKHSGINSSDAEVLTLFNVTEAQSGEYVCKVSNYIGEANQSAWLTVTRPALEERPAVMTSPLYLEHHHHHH

[2] = target: T2, human FGFR1b-IIIc extracellular domain with a His tag (human, UniProt P11362 22-376); test: ELISA, IgG1 format
T2 construct: also called huFGFR1b-IIIc; FGFR1-IIIc
T2 sequence: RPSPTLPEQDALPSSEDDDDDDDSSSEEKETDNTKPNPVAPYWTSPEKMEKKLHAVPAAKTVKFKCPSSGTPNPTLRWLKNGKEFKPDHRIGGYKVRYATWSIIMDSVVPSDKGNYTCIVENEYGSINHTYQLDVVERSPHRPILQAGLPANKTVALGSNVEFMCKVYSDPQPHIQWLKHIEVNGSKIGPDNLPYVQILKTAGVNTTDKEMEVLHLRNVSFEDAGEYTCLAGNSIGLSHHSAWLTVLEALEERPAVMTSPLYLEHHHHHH

[3] = target: T3, human FGFR1 (FGFR1b-IIIb or FGFR1b-IIIc, not stated which) (human, UniProt P11362 22-376); test: ELISA on coated human FGFR1b (IIIb or IIIc, not stated which)
T3 chain: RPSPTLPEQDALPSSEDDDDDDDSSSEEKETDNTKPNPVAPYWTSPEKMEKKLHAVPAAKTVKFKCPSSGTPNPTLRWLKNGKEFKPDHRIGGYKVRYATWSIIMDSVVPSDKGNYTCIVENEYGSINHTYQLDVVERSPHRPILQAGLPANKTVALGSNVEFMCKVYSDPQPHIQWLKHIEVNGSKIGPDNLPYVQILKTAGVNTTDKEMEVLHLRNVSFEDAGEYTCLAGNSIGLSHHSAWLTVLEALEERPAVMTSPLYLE

[4] = target: T3, human FGFR1 (FGFR1b-IIIb or …); test: ELISA on coated human FGFR1b (IIIb or IIIc, not stated which), IgG1 format
[5] = target: FGFR1 of NCI-H520 cells (UniProt P11362 22-822); test: cell-based or functional assay
[6] = target: T1, human FGFR1b-IIIb extracellular domain …; test: SPR (BIAcore 4000), antibody captured by anti-human Fc, His-tagged FGFR1 injected
[7] = target: T2, human FGFR1b-IIIc extracellular domain …; test: as above
[8] = target: T1, human FGFR1b-IIIb extracellular domain …; test: ELISA
[9] = target: T4, Human FGFR1 D2-His6 (human, UniProt P11362 22-254); test: ELISA
T4 construct: also called D2 domain; wild-type D2
T4 sequence: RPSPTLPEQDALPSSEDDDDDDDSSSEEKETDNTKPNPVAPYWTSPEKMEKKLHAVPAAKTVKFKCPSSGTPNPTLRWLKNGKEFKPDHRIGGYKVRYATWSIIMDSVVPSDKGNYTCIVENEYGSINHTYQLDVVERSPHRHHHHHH

Chain of FGFR1 of NCI-H520 cells (P11362 22-822): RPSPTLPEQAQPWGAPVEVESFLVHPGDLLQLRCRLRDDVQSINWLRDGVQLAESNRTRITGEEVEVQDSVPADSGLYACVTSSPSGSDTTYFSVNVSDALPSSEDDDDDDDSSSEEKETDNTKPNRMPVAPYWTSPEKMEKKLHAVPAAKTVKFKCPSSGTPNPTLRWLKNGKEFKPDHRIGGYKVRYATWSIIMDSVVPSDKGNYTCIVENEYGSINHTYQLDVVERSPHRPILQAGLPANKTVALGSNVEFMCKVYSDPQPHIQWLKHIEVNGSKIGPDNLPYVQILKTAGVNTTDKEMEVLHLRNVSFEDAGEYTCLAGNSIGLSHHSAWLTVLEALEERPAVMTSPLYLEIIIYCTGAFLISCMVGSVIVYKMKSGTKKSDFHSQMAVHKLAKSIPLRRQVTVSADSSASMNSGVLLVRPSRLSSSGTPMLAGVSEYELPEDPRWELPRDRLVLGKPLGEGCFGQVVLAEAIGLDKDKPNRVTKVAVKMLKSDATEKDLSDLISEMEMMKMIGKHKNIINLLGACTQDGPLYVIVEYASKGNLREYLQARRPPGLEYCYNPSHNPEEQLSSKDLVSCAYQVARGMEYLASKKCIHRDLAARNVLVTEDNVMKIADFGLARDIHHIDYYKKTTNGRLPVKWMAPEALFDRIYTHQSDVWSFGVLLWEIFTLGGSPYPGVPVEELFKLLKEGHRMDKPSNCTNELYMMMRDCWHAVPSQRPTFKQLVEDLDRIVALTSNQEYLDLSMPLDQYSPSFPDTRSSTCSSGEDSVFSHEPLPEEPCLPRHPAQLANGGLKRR

binding result [1]: binds
binding result [2]: binds
B1: mAb #A02 in the IgG1 format (antibody, V domains shown)
VH: QVQLQESGPGLVKPSGTLSLTCAVSGGSISSNNWWSWVRQPPGKGLEWIGEIYHSGSTSYNPSLKSRVTISVDKSKNQFSLKLSSVTAADTAVYYCARATDWFDLWGQGTLVTVSS
VL: SYVLTQPPSVSVAPGQTARITCGGNNIGSESVHWYQQKPGQAPVLVVYDDSDRPSGIPERFSGSNSGNTATLTISRVEAGDEADYYCQVWDSTSDHRVFGGGTKLTVL

EC50 [3]: 15 pM
B2: mAb #D01 in the IgG1 format (antibody, V domains shown)
VH: B1 VH with L105H
VL: SYVLTQPPSVSVAPGQTARITCGGNNIGSESVHWYQQKPGQAPVLVVYDDSDRPSGIPERFSGSNSGNTATLTISRVEAGDEADYYCQVWDSTSDHRVFGGGTKLTVLG

EC50 [4]: 8 pM
B3: #A08 lead IgG1 antibody (bivalent) (antibody, V domains shown)
VH: B1 VH with Q1E, A99G, L105P
VL: B2 VL
notes: also called lgG1 (bivalent) format of #A08; #A08 lead-lgG1 m3 antibody

IC50 of inhibition of FGF1-induced pFGFR1 in NCI-H520 cells [5]: 4 nM
IC50 of inhibition of FGF2-induced pFGFR1 in NCI-H520 cells [5]: 0.2 nM
Kd [6]: 10 pM
Kd [7]: 17 pM
B4: mAb #A08 (#A08 hit), anti-FGFR1 antibody (antibody, V domains shown)
VH: B1 VH with Q1E, S84N, A99G, L105P
VL: B1 VL with S1Q, Y2A
notes: also called imAb #A08; clone #A08

binding result [1]: binds
binding result [2]: binds
B5: mAb #C01 in the IgG1 format (antibody, V domains shown)
VH: B1 VH with L105A
VL: B1 VL

binding result [8]: binds
binding result [9]: no binding
IC50 of inhibition of FGF1-induced pFGFR1 in NCI-H520 cells [5]: 1 nM
IC50 of inhibition of FGF2-induced pFGFR1 in NCI-H520 cells [5]: 1 nM
Kd [7]: 10 pM
B6: mAb #A05 (#A05 hit), anti-FGFR1 antibody (antibody, IgG1, V domains shown)
VH: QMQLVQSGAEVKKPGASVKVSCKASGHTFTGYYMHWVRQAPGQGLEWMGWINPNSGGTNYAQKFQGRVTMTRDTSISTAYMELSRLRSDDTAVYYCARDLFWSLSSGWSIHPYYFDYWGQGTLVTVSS
VL: QSALTQPASVSGSPGQSITISCTGTSSDVGSYNLVSWYQQHPGKAPKLMIYGGSKRPSGVPDRFSGSKSDTSASLTISGLQAEDEADYYCCSYTYNGDVFGTGTKVTVL
notes: also called imAb #A05

IC50 of inhibition of FGF1-induced pFGFR1 in NCI-H520 cells [5]: 70 nM
IC50 of inhibition of FGF2-induced pFGFR1 in NCI-H520 cells [5]: 6 nM
IC50 of inhibition of pFGFR1 in NCI-H520 cells in the absence of ligand [5]: 20 nM
fold change of pFGFR1 inhibition IC50, monovalent against bivalent format [5]: ~10 fold
B7: monovalent SEEDbody #A08 (antibody)
heavy: EVQLQESGPGLVKPSGTLSLTCAVSGGSISSNNWWSWVRQPPGKGLEWIGEIYHSGSTSYNPSLKSRVTISVDKSKNQFSLKLSSVTAADTAVYYCARGTDWFDPWGQGTLVTVSSASTKGPSVFPLAPSSKSTSGGTAALGCLVKDYFPEPVTVSWNSGALTSGVHTFPAVLQSSGLYSLSSVVTVPSSSLGTQTYICNVNHKPSNTKVDKRVEPKSCDKTHTCPPCPAPELLGGPSVFLFPPKPKDTLMISRTPEVTCVVVDVSHEDPEVKFNWYVDGVEVHNAKTKPREEQYNSTYRVVSVLTVLHQDWLNGKEYKCKVSNKALPAPIEKTISKAKGQPFRPEVHLLPPSREEMTKNQVSLTCLARGFYPKDIAVEWESNGQPENNYKTTPSRQEPSQGTTTFAVTSKLTVDKSRWQQGNVFSCSVMHEALHNHYTQKTISLSPG
chain: EPKSSDKTHTCPPCPAPELLGGPSVFLFPPKPKDTLMISRTPEVTCVVVDVSHEDPEVKFNWYVDGVEVHNAKTKPREEQYNSTYRVVSVLTVLHQDWLNGKEYKCKVSNKALPAPIEKTISKAKGQPREPQVYTLPPPSEELALNELVTLTCLVKGFYPSDIAVEWLQGSQELPREKYLTWAPVLDSDGSFFLYSILRVAAEDWKKGDTFSCSVMHEALHNHYTQKSLDRSPG
light: SYVLTQPPSVSVAPGQTARITCGGNNIGSESVHWYQQKPGQAPVLVVYDDSDRPSGIPERFSGSNSGNTATLTISRVEAGDEADYYCQVWDSTSDHRVFGGGTKLTVLGQPKAAPSVTLFPPSSEELQANKATLVCLISDFYPGAVTVAWKADSSPVKAGVETTTPSKQSNNKYAASSYLSLTPEQWKSHKSYSCQVTHEGSTVEKTVAPTECS
